This data set concerns the molecule itself. Kind of data set: crystal structure.

B1: CML1 (C. cinerea Mucin-binding Lectin 1), recombinant untagged (natural protein, Coprinopsis cinerea, UniProt B3VS76 1-127, looked up)
chain: MAIFHTGSELFIITRGPGKLTLLTWGGLNNLRSVIGAIPTENTGVTKWAVSFSHNYTRFSFIWEGQGEACYQIGNGLTRSPVGRSWSSSSTIHWGSSTVITEDVTSVVPGAVNRDKVTTAYALPDNL
As usually defined, the stoichiometry N is a count of units in the complex or per binding partner. For B1, the “stoichiometry N” value came to 6.

For the origin of these results see publication PMC9191617 (Glycobiology, 2022).
